From patent publication US20210340264A1

Target: human SSTR2 (isoform A, UniProtKB P30874) (human) (UniProt P30874)
Experiment: flow cytometry, BON-1 cells, same staining conditions (FIG. 10B)

Chain of human SSTR2 (P30874 whole entry, canonical isoform): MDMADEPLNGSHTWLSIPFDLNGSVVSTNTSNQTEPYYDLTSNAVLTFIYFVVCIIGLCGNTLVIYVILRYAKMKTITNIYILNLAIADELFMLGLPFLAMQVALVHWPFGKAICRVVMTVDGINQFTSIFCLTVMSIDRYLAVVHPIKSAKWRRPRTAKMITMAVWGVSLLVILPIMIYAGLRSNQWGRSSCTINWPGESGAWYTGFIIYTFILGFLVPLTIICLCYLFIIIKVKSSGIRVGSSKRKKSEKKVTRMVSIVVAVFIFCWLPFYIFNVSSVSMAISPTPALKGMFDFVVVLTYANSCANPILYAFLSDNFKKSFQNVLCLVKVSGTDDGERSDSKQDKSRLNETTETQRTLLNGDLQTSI

surface binding percentage: 38%
Substance: commercial anti-SSTR2 mAb (R&D Systems, Catalog# MAB4224) (antibody)
